Assay results reported in article PMC3947372 (Journal of molecular biology, 2013).

Target: the molecule itself
Test: crystal structure

B1: NaVAe1p, pore-only sodium channel protein derived from the Alkalilimnicola ehrlichei BacNaV NaVAe1 (domain or fragment)
chain: LLRAIPGIAWIALLLLVIFYVFAVMGTKLFAQSFPEWFGTLGASMYTLFQVMTLESWSMGIARPVIEAYPWAWIYFVSFILVSSFTVLNLFIGIIIESMQSAHWEAEDAKRIEQEQRAHDERLEMLQLIRDLSSKVDRLERRSGKR
  stoichiometry N: 4
